The series “crystal structure” concerns the molecule itself. The experiment in a line: crystal structure.
The series “cryo-EM structure” deals with the molecule itself. Nature of the series: cryo-EM structure.

One may read the stoichiometry N as a count of units in the complex or per binding partner.

B1: seleno-methionine substituted AcrF3 (anti-CRISPR protein encoded by gene 35 from phage JBD5) (natural protein)
chain: MSNTISDRIVARSVIEAARFIQSWEDADPDSLTEDQVLAAAGFAARLHEGLQATVLQRLVDESNHEEYREFKAWEEALLNADGRVASSPFADWGWWYRIANVMLATASQNVGVTWGSRVHGRLMAIFQDKFKQRYEEQA
modifications: seleno-methionine substituted
For B1, in “crystal structure”, the “stoichiometry N” value came to 2.

B2: AcrF3 (as in the PaeCas3-AcrF3 complex) (natural protein, phage JBD5)
chain: MSNTISDRIVARSVIEAARFIQSWEDADPDSLTEDQVLAAAGFAARLHEGLQATVLQRLVDESNHEEYREFKAWEEALLNADGRVASSPFADWGWWYRIANVMLATASQNVGVTWGSRVHGRLMAIFQDKFKQRYEEQA
On to B2, for which the “stoichiometry N” value in the series “cryo-EM structure” was determined as 2.

Source of the values: paper PMC5113301 (Cell Research, 2016).
